Assay results published in US20200010853, “METHOD FOR INSERTING DESIRED DNA FRAGMENT INTO SITE LOCATED ADJACENT TO BINDING DOMAIN OF DNA-BINDING PROTEIN” (KYUSHU UNIVERSITY, NATIONAL UNIVERSITY CORPORATION, published 2020).

Biological target: Tn5 transposase (UniProt Q46731 Q46731:1-476)
Experiment: free adaptor added to Tn5 in fixed cells; integration with 5 mM MgCl2, 37 C; binding not measured separately
Conditions: chain copies: 2; partial duplex with 5' overhang
Method: Subsequently, TN5 transposase was added to the sample at a concentration of 85 μg/mL, and incubated at room temperature for 10 minutes. Thereby, transposase was bound to the transposase-binding sequence in the DNA fragment labeled to the nucleic acid-labeled secondary antibody.
Subsequently, a free DNA fragment (hereinafter, referred to as “oligo3-4”) having a transposase-binding sequence was added to the sample, reacted at room temperature for 1 hour, and then washed with PBS. The oligo3-4 was obtained by annealing a DNA fragment having a base sequence described in the Seq ID No. 3 and a DNA fragment having a base sequence described in the Seq ID No. 4. A double stranded DNA domain of the oligo3-4 was a binding sequence of TN5 transposase.

Tn5 transposase, sequence (Q46731 whole entry, one chain of several): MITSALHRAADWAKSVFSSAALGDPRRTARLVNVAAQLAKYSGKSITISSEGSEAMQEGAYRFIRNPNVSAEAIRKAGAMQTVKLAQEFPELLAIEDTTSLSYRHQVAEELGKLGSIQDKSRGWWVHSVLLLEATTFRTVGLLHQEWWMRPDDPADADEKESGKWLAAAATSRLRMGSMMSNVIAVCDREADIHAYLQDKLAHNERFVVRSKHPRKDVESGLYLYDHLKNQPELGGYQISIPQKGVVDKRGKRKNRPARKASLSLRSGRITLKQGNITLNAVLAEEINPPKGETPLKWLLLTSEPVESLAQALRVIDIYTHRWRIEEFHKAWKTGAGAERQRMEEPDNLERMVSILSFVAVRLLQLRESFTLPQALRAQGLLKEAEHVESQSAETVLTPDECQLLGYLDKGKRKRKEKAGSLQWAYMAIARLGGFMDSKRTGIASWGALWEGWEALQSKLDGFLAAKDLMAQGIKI

B1: oligo3-4 free Tn5 adaptor (mixed)
DNA 1: GTCTCGTGGGCTCGGAGATGTGTATAAGAGACAG
DNA 2: CTGTCTCTTATACACATCT
binding result: binds
